Results: patent US20170165373A1

Biological target: human BCMA (huBCMA), full length, on cells (human) (UniProt Q02223)
Assay: cell-based or functional assay

human BCMA (huBCMA), full length, on cells (human), sequence (Q02223 whole entry N81S): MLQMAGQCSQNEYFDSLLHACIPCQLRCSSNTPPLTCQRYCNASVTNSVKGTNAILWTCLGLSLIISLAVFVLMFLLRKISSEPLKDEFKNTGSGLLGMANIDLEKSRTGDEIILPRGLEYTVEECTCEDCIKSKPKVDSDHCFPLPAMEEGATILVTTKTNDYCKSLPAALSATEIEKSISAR

B1: 29C12-MCC-DM1 (antibody drug conjugate) (protein)
VH: EVQLLESGGALVQPGGSLRLSCAASGFTFSSYAMNWVRQAPGKGLEWVSAISVGGDTYYADSVKGRFTISRDNSKNTLYLQMNSLRAEDTAVYYCAKDQVTMVRGVWYYYGLDVWGQGTTVTVSS
VL: DIVMIQSPLSLPVTPGEPASISCRSSQSLLHSNGNNYLDWYLQKPGQSPHLLISLGSNRTSGVPDRFSGSGSGTDFTLKISRVEAEDVGVYYCMQALQPPRRFGQGTKLEIKR
- H929 cell growth inhibition IC50 (CellTiter-Glo, 96 h): 0.39 nM
